Data: patent US20060029601A1 (E R SQUIBB AND SONS L L C, published 2006)

T1: human interferon alpha receptor 1 (IFNAR-1) on cells (Daudi, U937, human peripheral blood mononuclear cells) (human, UniProt P17181 28-557)
T1 sequence (looked up): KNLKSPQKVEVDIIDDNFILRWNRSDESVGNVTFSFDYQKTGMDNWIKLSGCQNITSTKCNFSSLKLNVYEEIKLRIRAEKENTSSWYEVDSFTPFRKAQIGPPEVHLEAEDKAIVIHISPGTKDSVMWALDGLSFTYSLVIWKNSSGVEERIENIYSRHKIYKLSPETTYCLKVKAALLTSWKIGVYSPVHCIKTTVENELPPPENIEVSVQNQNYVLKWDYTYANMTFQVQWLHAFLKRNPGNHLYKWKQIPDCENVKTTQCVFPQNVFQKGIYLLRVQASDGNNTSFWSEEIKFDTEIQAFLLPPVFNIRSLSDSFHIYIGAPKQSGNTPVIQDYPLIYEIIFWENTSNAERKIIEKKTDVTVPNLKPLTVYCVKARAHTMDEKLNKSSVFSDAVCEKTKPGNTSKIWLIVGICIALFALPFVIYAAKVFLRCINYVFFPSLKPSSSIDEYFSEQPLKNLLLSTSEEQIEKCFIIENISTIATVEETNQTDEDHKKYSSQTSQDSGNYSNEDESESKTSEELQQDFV

T2: soluble CHO-derived human IFNAR-1 (human, UniProt P17181 28-436)
T2 construct: extracellular domain; also called soluble IFNAR-1
T2 sequence (looked up): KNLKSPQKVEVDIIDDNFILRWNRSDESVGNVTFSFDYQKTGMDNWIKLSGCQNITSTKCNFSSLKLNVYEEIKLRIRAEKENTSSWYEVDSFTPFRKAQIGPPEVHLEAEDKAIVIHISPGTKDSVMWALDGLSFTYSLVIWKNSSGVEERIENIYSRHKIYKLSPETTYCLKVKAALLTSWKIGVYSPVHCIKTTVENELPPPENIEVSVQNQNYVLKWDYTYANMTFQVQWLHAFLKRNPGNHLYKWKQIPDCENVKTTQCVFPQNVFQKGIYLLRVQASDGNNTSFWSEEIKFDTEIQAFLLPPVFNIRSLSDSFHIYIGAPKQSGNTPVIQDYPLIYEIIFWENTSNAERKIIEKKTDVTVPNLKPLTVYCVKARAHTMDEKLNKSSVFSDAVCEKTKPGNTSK

B1: human monoclonal antibody 4G5 (antibody, IgG1, V domains shown)
VH: QVQLQQWGAGLLKPSETLSLTCAVYGGSFSNYYWSWIRQPPGKGLEWIGEIILSGSTNYNPSLKSRVTISVDTSKNQFSLNLTSVTAADTAVYYCARESKWGYYFDSWGQGTLVTVSS
VL: AIQLTQSPSSLSASVGDRVTITCRATQDISIALVWYQQKPGKAPELLIYDASGLGSGVPSRFSGSGSGTDFTLTISSLQPEDFATYYCQQFNSYPYTFGQGTKLEIK
B2: human monoclonal antibody 11E2 (antibody, IgG1, V domains shown)
VH: EVQLVQSGAEVKKPGESLKISCKGSGYIFTNYWIAWVRQMPGKGLESMGIIYPGDSDIRYSPSFQGQVTISADKSITTAYLQWSSLKASDTAMYYCARHDIEGFDYWGRGTLVTVSS
VL: EIVLTQSPGTLSLSPGERATLSCRASQSVSSSFFAWYQQKPGQAPRLLIYGASSRATGIPDRLSGSGSGTDFTLTITRLEPEDFAVYYCQQYDSSAITFGQGTRLEIK
B3: human monoclonal antibody 9D4 (antibody, IgG1, V domains shown)
VH: EVQLVQSGAEVKKPGESLKISCKGSGYIFTNYWIAWVRQMPGKGLESMGIIYPGDSDIRYSPSFQGQVTISADKSITTAYLQWSSLKASDTAMYYCARHDIEGFDYWGRGTLVTVSS
VL: EIVLTQSPGTLSLSPGERATLSCRASQSVSSSFFAWYQQKPGQAPRLLIYGASSRATGIPDRLSGSGSGTDFTLTITRLEPEDFAVYYCQQYDSSAITFGQGTRLEIK
B4: murine anti-IFNAR-1 antibody 64G12 (ECACC Deposit No. 92022605) (antibody, V domains shown)
VH: QVTLKESGPGILKPSQTLSLTCSFSGFSLSTSGMGIGWIRQPSGKGLEWLAHIWWDDDKYYNPSLKSQLTISRDTSTNQVFLNITSVDTVDTATYYCGRNYYPYDAWFDYWGQGTLVTVS
VL: EIVLTQSPTTMAASPGEKITITCSASSSINSNHLHWYQQKPGFSPKVLIYRTSILASGVPTRFSGSGSGTSYSLTIGTMEAEDVATYYCQQGSNIPFTFGSGTELEIKR
B5: human monoclonal antibody 3F11 (antibody, IgG1, V domains shown)
VH: QVQLQQWGAGLLKPSETLSLTCAVYGGSFSGYFWSWIRQPPGKGLEWIGEIDHSGKTNYNPSLKSRVTISVDTSKNQVSLKLSSVTAADTAVYYCARESKYYFGLDVWGQGTTVTVTS
VL: AIQLTQSPSSLSASVGDRVTITCRASQGIYSVLAWYQQKPGKTPKLLIYDASRLESGVPSRFSGSGSGTDFTLTISSLQPEDFATYYCQQFNSYITFGQGTRLEIK

Legend:
[1] = biological target: T1, human interferon alpha receptor 1 …; assay: cell-based or functional assay
[2] = biological target: T1, human interferon alpha receptor 1 …; assay: cell-based or functional assay; remark: listed apart in the source
[3] = biological target: T2, soluble CHO-derived human IFNAR-1; assay: cross-competition ELISA on plate-coated soluble CHO-derived human IFNAR-1; titrated antibody against 64G12 at 0.3 ug/mL as competitor, detected with anti-mouse IgG (Fc) peroxidase, O.D. 415 nm

| Binder | Cell Proliferation (Daudi) EC50, blocking of IFN omega [1] | Cell Proliferation (Daudi) EC50, blocking of IFN alpha 2b [2] | ISRE-RG Reporter (U937) EC50, blocking of IFN alpha 2b [2] | IC50 (read off the curve) [3] |
| --- | --- | --- | --- | --- |
| B1 | 1.4 nM | – | – | – |
| B2 | 0.3 nM | – | – | – |
| B3 | 0.3 nM | – | – | – |
| B4 | 5.5 nM | 3.1 nM | 6 nM | ~0.7 µg/mL |
| B5 | 0.6 nM | 0.3 nM | 1.2 nM | – |
